From patent US20220073604A1 (ARGENX BVBA, published 2022)
Numbering of substitutions follows the chain as printed.

How the values were obtained:
[1] = molecular target: T1, bacterially produced human IL-6 (human, UniProt P05231 30-212); assay: SPR (Biacore), purified Fab
T1 construct: Immobilised on the Biacore chip; also called BACT IL-6 (2-1); bactIL-6

[2] = molecular target: T2, eukaryotically produced human IL-6 (human, UniProt P05231 30-212); assay: SPR (Biacore), purified Fab
T2 construct: Immobilised on the Biacore chip; also called Euk IL-6; EUK IL-6 (3-1)

human IL-6 = human IL-6 (human, UniProt P05231 30-212); assay: cell-based or functional assay
cynomolgus monkey IL-6 [3] = molecular target: T3, cynomolgus monkey IL-6 (cynomolgus monkey, UniProt P79341 28-212, limits assumed); assay: SPR; periplasmic fraction; against parental 29B11
T3 construct: also called HIS-cyIL-6

[4] = molecular target: T4, bacterially produced human IL-6 (human, UniProt P05231 30-212); assay: SPR; periplasmic fraction; against parental 29B11
T4 construct: also called bactIL-6; prokaryotic IL-6

[5] = molecular target: T5, eukaryotically produced human IL-6 (human, UniProt P05231 30-212); assay: SPR; periplasmic fraction; against parental 29B11
T5 construct: also called eukIL-6; Euk IL-6

cynomolgus monkey IL-6 [6] = molecular target: T3, cynomolgus monkey IL-6; assay: SPR; periplasmic fraction
[7] = molecular target: T4, bacterially produced human IL-6; assay: SPR; periplasmic fraction
[8] = molecular target: T5, eukaryotically produced human IL-6; assay: SPR; periplasmic fraction
[9] = molecular target: T6, human IL-6 (as added in the B9 and 7TD1 bioassays) (human, UniProt P05231 30-212); assay: cell-based or functional assay
[10] = molecular target: T6, human IL-6 (as added in the B9 and 7TD1 …); assay: cell-based or functional assay; remark: listed apart in the source
[11] = molecular target: T6, human IL-6 (as added in the B9 and 7TD1 …); assay: cell-based or functional assay; remark: listed apart in the source

B1: 24D10 (Fab, V domains shown)
VH: QLQVVESGGGLVQPGGSLRLSCAASGFTFSSYAMSWVRQAPGKGPEWVSRISSGGGSTSYADSVKGRFTISRDNAKNTLYLQMNSLKPEDTAVYYCANRAGWGMGDYWGQGTQVTVSS
VL: QTVVTQEPSLSVSPGGTVTLTCGLSSGSVTASNYPGWFQQTPGQAPRALIYSTNDRHSGVPSRFSGSISGNKAALTITGAQPEDEADYYCALDIGDITEFGGGTHLTVLG
notes: Purified Fab
In the case of B1, the Kd [1] is reported as 500 pM, the koff [1] is reported as 0.0001 s⁻¹ and the kon [1] is reported as 210000 M⁻¹ s⁻¹. It also gave a Kd [2] of 410 pM, a koff [2] of 0.0001 s⁻¹ and a kon [2] of 250000 M⁻¹ s⁻¹.

B2: 61H7 antibody (antibody, V domains shown)
VH: EVQLVESGGGLVQPGGSLRLSCAASGFTFSSYRMYWVRQPPGKGLEWVSAISAGGGSTYYGDSVKGRFTISRDNAKNTVYLQMNSLKPEDTAVYYCANRAGWGMGDYWGQGTQVTVSS
VL: B1 VL
In the case of B2, the “IC50, growth of IL-6-dependent 7TD1 cells with 75 pg/ml human IL-6” value (shortened to “IC50, growth”) (human IL-6) is reported as under 1 pM.

B3: 104C1 (antibody, V domains shown)
VH: B2 VH with V5L, R33A, P40A, A50R
VL: B1 VL with L10F, F38Y, S62D, P82A, E83D, A86S, H105K
For B3, the “IC50, growth” value (human IL-6) was under 1 pM.

B4: 61H7 (Fab, V domains shown)
VH: B2 VH
VL: B1 VL
notes: Fab; also called Fab 61H7
B4 gave a Kd [1] of 17 pM, a koff [1] of 2e-06 s⁻¹ and a kon [1] of 120000 M⁻¹ s⁻¹. It also gave a Kd [2] of 450 pM, a koff [2] of 5.5e-05 s⁻¹ and a kon [2] of 120000 M⁻¹ s⁻¹.

B5: Fab 55E2 (Fab, V domains shown)
VH: EVQLVESGGGLVQPGGSLRLSCAASGFTFSSYAMSWVRQAPGKGLEWVSRISSGGISTYYADSVKGRFTISRDNAKNTLYLQMNSLKPEDTAVYYCVRYAWGVQWAFDFWGQGTQVTVSS
VL: AQSVLTQPPSVSGSPGKTVTISCAGTSSDVGYGNYVSWYQQLPGMAPKLLIYDVNKRASGIADRFSGSKFANTASLTISGLQSEDEADYYCASYKRGDNAVFGGGTKLTVLG
notes: VL-shuffled Fab of 29B11, periplasmic fraction; also called 55E2b
With B5 the “fold improvement KD” value (cynomolgus monkey IL-6 [3]) was 9.22 fold, the fold improvement ka (cynomolgus monkey IL-6 [3]) was 4.14 fold and the fold improvement kd (cynomolgus monkey IL-6 [3]) was 2.22 fold. The “fold improvement KD” value [4] was 3.82 fold, the fold improvement ka [4] was 1.95 fold and the fold improvement kd [4] was 1.95 fold. For the same binder, the “fold improvement KD” value [5] was 3.46 fold, the fold improvement ka [5] was 2.21 fold and the fold improvement kd [5] was 1.56 fold. For the same binder, the Ka (cynomolgus monkey IL-6 [6]) was 1.39e+09 M⁻¹, the Kd (cynomolgus monkey IL-6 [6]) was 717 pM and the koff (cynomolgus monkey IL-6 [6]) was 0.000336 s⁻¹. The kon (cynomolgus monkey IL-6 [6]) was 468000 M⁻¹ s⁻¹, the Ka [7] was 7.28e+09 M⁻¹ and the Kd [7] was 137 pM. It also gave a koff [7] of 6.72e-05 s⁻¹, a kon [7] of 489000 M⁻¹ s⁻¹ and a Ka [8] of 6.34e+09 M⁻¹. It also gave a Kd [8] of 158 pM, a koff [8] of 6.53e-05 s⁻¹ and a kon [8] of 414000 M⁻¹ s⁻¹.

B6: Fab 47C2 (Fab, V domains shown)
VH: B5 VH
VL: LSYDLTQPPSVSGSPGKTVTISCAGTSSDVGYGNYVSWYQQLPGMAPKILIYDVNKRASGIADRFSGSKSGNTASLTISGLQSEDEADYYCASYRRGETIVFGGGTHLTVLG
notes: VL-shuffled Fab of 29B11, periplasmic fraction; also called 47C2 (R4)
In the case of B6, the “fold improvement KD” value (cynomolgus monkey IL-6 [3]) is reported as 4.29 fold, the fold improvement ka (cynomolgus monkey IL-6 [3]) is reported as 7.53 fold and the fold improvement kd (cynomolgus monkey IL-6 [3]) is reported as 0.57 fold. The “fold improvement KD” value [4] was 1.86 fold, the fold improvement ka [4] was 4.46 fold and the fold improvement kd [4] was 0.42 fold. The “fold improvement KD” value [5] was 1.94 fold, the fold improvement ka [5] was 4.54 fold and the fold improvement kd [5] was 0.43 fold. For the same binder, the Ka (cynomolgus monkey IL-6 [6]) was 6.48e+08 M⁻¹, the Kd (cynomolgus monkey IL-6 [6]) was 1540 pM and the koff (cynomolgus monkey IL-6 [6]) was 0.00131 s⁻¹. The kon (cynomolgus monkey IL-6 [6]) was 851000 M⁻¹ s⁻¹, the Ka [7] was 3.56e+09 M⁻¹ and the Kd [7] was 281 pM. For the same binder, the koff [7] was 0.000315 s⁻¹, the kon [7] was 1.12e+06 M⁻¹ s⁻¹ and the Ka [8] was 3.54e+09 M⁻¹. It also gave a Kd [8] of 282 pM, a koff [8] of 0.00024 s⁻¹ and a kon [8] of 849000 M⁻¹ s⁻¹.

B7: 111B1 (antibody, V domains shown)
VH: B2 VH with V5L, R33A, A50R, A75S, V79L, K87R, P88A, Q113L
VL: QTVVTQEPSFSVSPGGTVTLTCGLSSGSVTASNYPGWFQQTPGQAPRALIYSTNDRHSGVPDRFSGSILGNKAALTITGAQAEDEADYYCALDIGDITEFGGGTQLTVL
B7 was tested, and the “IC50, growth” value (human IL-6) was under 1 pM.

B8: 129D3 antibody (antibody, V domains shown)
VH: EVQLQESGPGLVKPSQTLSLTCTVSGGSITSRYYAWSWIRQPPGKGLEWIGVIDYDGDTYYSPSLKSRVSISWDTSKNQFSLKLSSVTPADTAVYYCARDPDVVTGFHYDYWGQGTMVTVSS
VL: QSALTQPPSVSGTPGQSVTISCAGANNDIGTYAYVSWYQQLPGTAPKLMIYKVTTRASGIPDRFSGSKSGNTASLTISGLQAEDEADYYCASYRNFNNAVFGTGTKLTVL
With B8 the “IC50, growth” value (human IL-6) was under 1 pM and the “IC50, proliferation of IL-6-dependent B9 cells with 10 pg/ml human IL-6” value (human IL-6) was under 0.1 pM.

B9: 133A9 (antibody, V domains shown)
VH: B8 VH with S31T, D56E, S70T, W73V, P89A, A90E
VL: B8 VL with S9L, T13S, S17T, L41P, K68I, A82S
For B9, the “IC50, growth” value (human IL-6) was under 1 pM.

B10: 132E7 (germlined variant of 68F2) (antibody, V domains shown)
VH: B8 VH with S70T, M117T
VL: B8 VL with A3V, S9R, T13A, S17T, M49L, I60V, T72S, S78T, T103G
For B10, the “IC50, 7TD1 cells” value [9] was 0.37 pM, the “Potency relative to 68F2, 7TD1 cells” value [9] was 1.85 and the “IC 50, B9 cell proliferation” value [10] was 0.38 pM. For the same binder, the “Rel. potency, B9 cells” value [10] was 2.1.

B11: 133H2 (antibody, V domains shown)
VH: B8 VH with S31T, V69T, S70T, M117T
VL: B8 VL with S9L, T13S, S17T, L41P, T103S
In the case of B11, the “IC50, growth” value (human IL-6) is reported as under 1 pM.

B12: 133H2 (germlined variant of 68F2) (antibody, V domains shown)
VH: B8 VH with S31T, V69T, S70T, M117T
VL: B8 VL with S9L, T13S, S17T, L41P, T103S
For B12, the “IC50, 7TD1 cells (batch A1.8)” value [9] was 0.35 pM, the “IC50, 7TD1 cells (batch A9.11)” value [9] was 0.47 pM and the “Potency relative to 68F2, 7TD1 cells (batch A1.8)” value [9] was 1.94. The “Potency relative to 68F2, 7TD1 cells (batch A9.11)” value [9] was 1.44, the “IC 50, B9 cell proliferation” value [10] was 0.37 pM and the “Rel. potency, B9 cells” value [10] was 2.2.

B13: 68F2 (parental antibody), full-length IgG1 (antibody, V domains shown)
VH: B8 VH with S31T, I50M, V69T, K83Q, A90E, M117Q
VL: QSALTQPPLVSGTPGQTVTISCAGANNDIGTYAYVSWYQQLPGTAPKLLIYKVTTRASGIPSRFSGSKSGNTASLTISGLQSEDEADYYCASYRNFNNAVFGRGTHLTVLG
With B13 the “IC50, 7TD1 proliferation assay, exp 7.07 (batch 24.06)” value [11] was 1.36 pM, the “IC50, 7TD1 proliferation assay, exp 7.07 (batch #12.9)” value [11] was 1.46 pM and the “IC50, 7TD1 proliferation assay, exp 22.06 (batch #12.9)” value [11] was 0.803 pM. The “IC50, 7TD1 proliferation assay, exp 29.06 (December batch)” value [11] was 0.645 pM, the “IC50, 7TD1 proliferation assay, exp 29.06 (Large batch)” value [11] was 1.31 pM and the “IC50, 7TD1 proliferation assay, exp 29.06 (batch 24.06)” value [11] was 0.56 pM. For the same binder, the “IC50, 7TD1 proliferation assay, exp 29.06 (batch #12.9)” value [11] was 0.521 pM, the “Rel. Potency, 7TD1, exp 29.06 (batch 24.06)” value [11] was 1 and the “IC50, 7TD1 cells (batch A8.10)” value [9] was 0.67 pM. For the same binder, the “Potency relative to 68F2, 7TD1 cells (batch A8.10)” value [9] was 1, the “IC 50, B9 cell proliferation (batch 12.9)” value [10] was 0.98 pM and the “IC 50, B9 cell proliferation (batch A8.10)” value [10] was 0.62 pM. For the same binder, the “average IC50 of the two 68F2 batches, B9 cells” value [10] was 0.8 pM.

B14: 68F2 antibody (antibody, V domains shown)
VH: B8 VH with S31T, I50M, V69T, K83Q, A90E, M117Q
VL: B13 VL
For B14, the “IC50, growth” value (human IL-6) was under 1 pM.

B15: 133E5 (germlined variant of 68F2) (antibody, V domains shown)
VH: B8 VH with E1Q, S70T, A90E, M117Q
VL: B8 VL with T13S, S17T, T103R
With B15 the “IC50, 7TD1 cells” value [9] was 0.1 pM, the “Potency relative to 68F2, 7TD1 cells” value [9] was 6.69 and the “IC 50, B9 cell proliferation” value [10] was 0.19 pM. For the same binder, the “Rel. potency, B9 cells” value [10] was 4.3.

B16: 133E5 (antibody, V domains shown)
VH: B8 VH with E1Q, S70T, A90E, M117Q
VL: B8 VL with T13S, S17T, T103R
With B16 the “IC50, growth” value (human IL-6) was under 1 pM.
